In patent US20190106460A1 (published 2019):
No end group written: not given here.

Target: T1, βTrCP (tag cleaved and complexed with Skp1) (UniProt Q9Y297 175-605; P63208 1-163)
T1 construct: Protein of the fluorescence polarisation assay, 0.035 µM; also called Beta Transducin repeat-containing protein; βTrCP/Skp1
Assay: FP competition, 10 nM fluorescein-IκB peptide on βTrCP/Skp1
Procedure: Binding of the compounds to βTrCP was assessed using a fluorescence polarisation (FP) binding assay. The FP assay is an in vitro binding assay using a fluorescein-tagged IkB peptide at 10 nM to mimic substrate binding to βTrCP, and was performed as described above.

T1 sequence (Q9Y297 175-605, chain 1 of 2): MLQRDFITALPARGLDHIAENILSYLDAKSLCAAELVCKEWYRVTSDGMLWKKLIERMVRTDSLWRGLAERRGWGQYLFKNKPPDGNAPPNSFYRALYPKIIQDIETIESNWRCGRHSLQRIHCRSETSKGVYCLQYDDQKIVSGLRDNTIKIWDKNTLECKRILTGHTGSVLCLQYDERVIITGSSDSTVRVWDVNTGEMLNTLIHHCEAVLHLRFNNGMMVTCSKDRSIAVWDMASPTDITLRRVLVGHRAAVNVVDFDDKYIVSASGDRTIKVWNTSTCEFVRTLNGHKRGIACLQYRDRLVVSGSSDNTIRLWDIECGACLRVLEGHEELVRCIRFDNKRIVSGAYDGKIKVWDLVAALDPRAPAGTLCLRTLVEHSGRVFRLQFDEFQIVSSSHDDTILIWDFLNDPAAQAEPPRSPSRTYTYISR
T1 sequence (P63208 whole entry, chain 2 of 2): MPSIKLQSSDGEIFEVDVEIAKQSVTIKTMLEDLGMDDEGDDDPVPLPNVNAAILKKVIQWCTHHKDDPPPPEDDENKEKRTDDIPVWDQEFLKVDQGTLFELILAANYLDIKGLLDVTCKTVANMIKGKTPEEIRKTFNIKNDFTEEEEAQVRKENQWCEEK

IC50: 43.6 µM
Binder: DEGFFE-NH2 [DEGFFE-NH2]
